Test results published in PMC12751049.

Columns and labels:
[1] = target: Complement 1q binding protein (C1qBP), recombinant His-tagged, residues 75-282 (human); assay: dynamic and static light scattering (DLS/SLS); C1qBP at 0.8 mg/ml, 20 mM HEPES pH 7.4, 37°C, with 2.5 mM CaCl2; trimer to dimer of trimers
[2] = target: Complement 1q binding protein (C1qBP), recombinant His-tagged, residues 75-282 (human); assay: SEC-MALS; Superdex 200 10/300 GL, 20 mM Na2HPO4, 20 mM NaCl, pH 6.5; proteins at 2-4 mg/ml alone or CypD:C1qBP mixture at 2:1 molar ratio; eluted complex checked by SDS-PAGE

| Substance | stoichiometry N [1] | stoichiometry N [2] | stoichiometry N (CypD per C1qBP trimer) [2] |
| --- | --- | --- | --- |
| Complement 1q binding protein (C1qBP), recombinant His-tagged, residues 75-282 (natural protein) | 6 | 3 | – |
| Cyclophilin D (CypD), recombinant, residues 44-207 (enzyme) | – | – | 1 |
